The values below come from PMC12219679.

Assay [1] deals with IZ-CD95L (after His-tag cleavage with TEV protease) (human). Kind of assay: SEC; Superdex 75 10/300 GL (Fig. 3A) or ENrich SEC 70 10 x 300 (Fig. 3B, C); PBS pH 7.4, 0.3 ml/min; sizes from a standard curve of protein standards; peak shares from Gaussian fits. For orientation: In gel filtration, larger molecules generally elute earlier.
Assay [2] deals with CD95-His (Sino Biological) (UniProt P25445).
In assay [3] the target is biotin-IZ-CD95L (human). Kind of assay: SEC; Superdex 75 10/300 GL (Fig. 3A) or ENrich SEC 70 10 x 300 (Fig. 3B, C); PBS pH 7.4, 0.3 ml/min; sizes from a standard curve of protein standards; peak shares from Gaussian fits.
For assay [4], the target named is CD95-His (Sino Biological) (UniProt P25445). Nature of the assay: ELISA; CD95-His coated at 2 µg/ml in PBS overnight at 4 °C; biotin-IZ-CD95L or FLAG-CD95L 0.1 nM to 100 nM in 0.5% BSA/PBST, 2 h at r.t.; detected with anti-CD95L antibody and HRP secondary; 4-parameter logistic fit.

Several values for one entry are separate records, joined by “and”; a condition that tells them apart may be missing. Identical values can stand only once.

Chain of CD95-His (Sino Biological) (P25445 26-173): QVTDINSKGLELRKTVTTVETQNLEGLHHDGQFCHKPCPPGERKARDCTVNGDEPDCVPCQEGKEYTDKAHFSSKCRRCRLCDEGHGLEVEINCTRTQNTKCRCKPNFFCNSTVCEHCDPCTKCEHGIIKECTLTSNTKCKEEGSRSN

Take “IZ-CD95L (after His-tag cleavage with TEV protease) (ligand)”: in assay [1], the percent of the protein in the trimer peak (Peak B, Gaussian fit) is 55%; the stoichiometry N (usually the number of molecules, sites or subunits per partner or assembly) was 3 and 2. Also, in assay [2], the Max (%) of apoptotic Hela WT cells (endogenous CD95), apoptosis dynamics assay, 1000 ng/ml ligand amounted to 72.9%.
For the substance biotin-IZ-CD95L (ligand), in assay [3], the percent of the protein in the trimer peak (Peak B, Gaussian fit) came out at 48%; the stoichiometry N is 3 and 2. Besides, the Kd (in general, the equilibrium constant for the complex coming apart) in assay [4] amounted to 0.68 nM. The Max (%) of apoptotic Hela WT cells (endogenous CD95), apoptosis dynamics assay, 1000 ng/ml ligand in assay [2] is 75.7%.
